The values below come from PMC9662066 (Emerging Microbes & Infections, 2022).

The target in experiment [1] is T1, SARS-CoV-2 WT-RBD (SARS-CoV-2, UniProt P0DTC2).
T1 construct: not shown: 6-His, C-terminal, kept
Kind of experiment: ELISA. The settings on record: both partners purified. Background: An ELISA detects its analyte on a solid surface through an enzyme-linked reagent.

The target of experiment [2] is T1, SARS-CoV-2 WT-RBD. Nature of the experiment: BLI. The settings on record: both partners purified.

Numbering of substitutions follows the chain as printed.

B1: MW01 (antibody, V domains shown)
VH: EVQLVQSGAEVKKPGSSVKVSCKASGGTFSSFSISWVRQAPGQGLEWMGRIIPVLGIANYAQEVQGRVTITADKSTSTAYMELSSLRSEDTAVYFCTTDRFVEPATGPFFDYWGQGTLVTVSS
VL: EIVMTQSPATLSVSPGERATLSCRASQSVSSNLAWYQQKPGQAPRLLIYGASTRATGIPARFSGSGSGTEFTLTISSLQSEDFAVYYCQQYSNWLTFGGGTKVEIK
In the case of B1, the binding result in the experiment with SARS-CoV-2 WT-RBD [1] is reported as “binds”.

B2: C548 (antibody, V domains shown)
VH: QVQLVQSGAEVKKPGSSVKVSCKASGGTFSSYAISWVRQAPGQGLEWMGGIIPIFGTANYAQKFQGRVTITADESTSTAYMELSSLRSEDTAVYYCARREAYGPRDYYYYYGMDVWGQGTTVTVSS
VL: QSALTQPPSASASLGASVTLTCTLSSGYSNYKVDWYQQRPGKGPRFVMRVGTGGIVGSKGDGIPDRFSVLGSGLNRYLTIKNIQEEDESDYHCGADQGSGSNFVGVFGGGTKLTVG
notes: IgG1; IGHV1-69-encoded
As for B2, the binding result with SARS-CoV-2 WT-RBD [2] is recorded as “binds”.

B3: FC08 (antibody, V domains shown)
VH: QLLQQSGAEVKKPGSSVKVSCKASGGTFSSYAISWVRQAPGQGLEWMGGIIPIIGIANYAQKFQGRVTITADKSTSTAYMELSSLRSEDTAVYYCARERGYSGYGAAYYFDYWGQGTLVTVSS
VL: SVLTQPPSVSGAPGQRVTISCTGSSSNIGAGYDVHWYQQLPGTAPKLLIYGNSNRPSGVPDRFSGSKSGTSASLAITGLQAEDEADYYCQSYDSSLSGSVFGGGTKLTVL
Regarding B3, the binding result with SARS-CoV-2 WT-RBD [1] is listed as “binds”.

B4: nCoV617 (antibody, V domains shown)
VH: QVQLVESGGGVVQPGRSLRLSCAASGFTFSSYAMHWVRQAPGKGLEWVALISYDGSNKYADSVKGRFTISRDNSKNTLYLQMNSLRAEDTAVYYCARGLGLRFLEWPISSYWGQGTLVTVSS
VL: not shown
notes: IgG1; IGHV3-30
In the case of B4, in the experiment with SARS-CoV-2 WT-RBD [2], the binding result is recorded as “binds”.

B5: BD-667 (antibody, V domains shown)
VH: QVQLVESGGGLVKPGGSLRLSCAASGFRFSDYYMNWIRQAPGKGLEWISYIGSGGFATYYGDSVKGRFTVSRDDAENSLYLQMNSLRAEDTAVYYCARGVTSYSDNSGNYRTDDAFDIWGQGTMVTVSS
VL: EIVMTQSPATLSVSPGERATLSCRASQSVSRNLAWYQQRPGQAPRLLIYGASTRATGVAARFTGSGFGTEFTLTISGLQSEDFAVYYCQEYNNWPPWTFGQGTKVEIK
notes: IgG1; IGHV3-11
For the molecule B5, the binding result in the experiment with SARS-CoV-2 WT-RBD [2] is reported as “binds”.

B6: A19-61.1 (antibody, V domains shown)
VH: QVQLVESGGGVVQPGRSLRLSCAASGFTFSSYAFHWVRQAPGKGLEWVAVISYDGSNQYYADSVKGRFTISRDNSKNTLYLQMNSLRADDTAVYYCARDLAIAVAGTWHYYNGMDVWGQGTTVTVSS
VL: DIQMTQSPSSVSASVGDRVIITCRASQGISSWLAWYQQKPGKAPKVLIYDASSLQSGVPSRFSGSGYGTDFTLTISSLQPEDSATYYCQQAKSFPITFGQGTRLEIK
notes: IgG1; IGHV3-30
B6: in the experiment with SARS-CoV-2 WT-RBD [2], the binding result is on record as “binds”.

B7: R1-32 (antibody, V domains shown)
VH: EVQLVESGAEVKKPGSSVKVSCKASGGTFSSYAISWVRQAPGQGLEWMGGIIPILGIANYAQKFQGRVTITADKSTSTAYMELSSLRSEDTAVYYCARENGYSGYGAAANFDLWGRGTLVTVSS
VL: QSVLTQPPSVSGAPGQRVTISCTGSSSNIGAGYDVHWYQQLPGTAPKLLIYGNSNRPSGVPDRFSGSKSGTSASLAITGLQAEDEADYYCQSYDSSLSGSVFGGGTKLTVL
Consider B7, for which the binding result with SARS-CoV-2 WT-RBD [1] is recorded as “binds”.

B8: LY-CoV555 (antibody, V domains shown)
VH: QVQLVQSGAEVKKPGSSVKVSCKASGGTFSNYAISWVRQAPGQGLEWMGRIIPILGIANYAQKFQGRVTITADKSTSTAYMELSSLRSEDTAVYYCARGYYEARHYYYYYAMDVWGQGTAVTVSS
VL: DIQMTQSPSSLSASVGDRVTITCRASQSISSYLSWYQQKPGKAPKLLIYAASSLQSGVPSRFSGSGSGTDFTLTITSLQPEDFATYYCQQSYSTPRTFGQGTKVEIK
Take B8: the binding result with SARS-CoV-2 WT-RBD [1] is on record as “binds”.

B9: 2-15 (antibody, V domains shown)
VH: QVQLVQSGAEVKKPGASVRVSCKASGYTFTGYYMHWVRQAPGQGLEWMGWINPISDGTNYAQKFQGWVTMTRDTSISTVYMELSRLRSDDTAVYYCARGGSRCSGGNCYGWAYDAFDIWGQGTMITVSS
VL: QSALTQPASVSGSPGQSITISCTGTSSDVGGYNFVSWYQQHPGKAPKLMIYDVSKRPSGVSNRFSGSKSGNTASLTISGLQAEDEADCYCSSYTSSSTFVFGTGTKVTVL
notes: IgG1; IGHV1-2
Turning to B9, the binding result with SARS-CoV-2 WT-RBD [2] is “binds”.

B10: CV07-270 (antibody, V domains shown)
VH: QVQLVESGGGLVKPGGSLRLSCAASGFTFSDYYMTWIRQAPGKGLEWVSYISSSGSTIYYADSVKGRFTISRDNAKNSLYLQMNSLRAEDTAVYYCARARGSSGWYRIGTRWGNWFDPWGQGTLVTVSS
VL: B9 VL with F34Y, D52E, K55N, C88Y, T98N, F99V, T103G, K106M, V107L
As for B10, the binding result with SARS-CoV-2 WT-RBD [2] is “binds”.
